In patent publication US9284543B2, “Neutral active soluble truncated PH20 polypeptides and uses thereof” (Halozyme, Inc., priority 2008, dated 2016):
Changes are numbered by the printed parent chain. Numbers in names are those of the source. Each block holds one molecule with its values, some of them ahead of it.

Tests used:
CHO-S cells = assay: PI-PLC treatment of expressing cells, Western blot of media and cells; type: cell-based, Chinese Hamster; settings: cells incubated with PI-PLC for 2 hours
Description: In this example, following transient expression, as described in Example 2 above, the media and cells were harvested separately and analyzed for PH20 expression and solublility by Western blot analysis. Solubility of the C-terminus truncation mutants was determined by examining whether the expressed protein was present in the growth media or in the cells. […] Cells expressing these mutants were treated with phosphoinositol-phospholipase C (PI-PLC), which cleaves the GPI-anchor allowing the release of soluble protein into the media, and the presence of PH20 in the resulting media and cells was determined by Western blot analysis.
Following expression of rHuPH20 in CHO—S cells for 72 hours, as described in Example 2A above, the media and cells were harvested separately. The cells were washed with serum-free media followed by the addition of 2 mL serum-free media per well. PI-PLC (0.5 units/well) was added to each well and the cells were incubated in the PI-PLC for 2 hours. The resultant media and cells were analyzed by Western blot analysis as described above.
Two plates each of rHuPH20 expressing CHO—S cells, one for treatment with PI-PLC and one without treatment with PI-PLC, were prepared for each C-terminus mutant as described in Example 2B above. Following expression for 48 hours, for cells untreated with PI-PLC, the media and cells were harvested separately. The harvested media was spun down, concentrated to a volume of 10 mL, and buffer exchanged into PBS using an Amicon 30 kD MWCO concentrator. The cells were rinsed with cold PBS and scraped and resuspended in 1.2 mL PBS with protease inhibitor Set III (Cat No. 539134, Calbiochem). The resuspended cells were briefly sonicated to prepare whole-cell extract. For PI-PLC treatment of cells, following expression for 48 hours, the untreated media was harvested, as described above. The cells were rinsed once with fresh CD DG44 medium with Glutamax-1, and the media was replaced with 12 mL fresh detergent free CD DG44 medium supplemented with Glutamax-1 with 3.0 units PI-PLC per dish, and the cells were incubated for 2 hours at 37° C. with 5% CO2. After 2 hours, the PI-PLC media and cells were harvested separately, as described above. The resultant untreated media and cells, and PI-PLC treated media and cells, were analyzed by Western blot analysis as described above.

[1] = Microtiter hyaluronidase activity assay with biotinylated-hyaluronic acid; type: biochemical; settings: for pH 5.5 Activity / pH 7.4 Activity: 72 hour post transfection supernatant; for Hyaluronidase activity (in words): pH 7.4 and pH 5.5
[2] = Hyaluronidase activity of N-glycan site specific deglycosylation mutants (biotinylated-HA assay); type: biochemical; settings: media of transfected CHO-S cells
Description: In short, a 4×BH 96-well plate was coated with biotinylated-HA (1.1 MDa). The 72 hour post transfection supernatant from cells transfected with human PH20 hyaluronidase carboxy-terminus deletion mutants was diluted in buffer at either pH 7.4 or pH 5.5 and added to individual wells of the plate and allowed to incubate at 37° C. for 90 minutes. The reaction was terminated by addition of 4M guanidine HCl. The wells were washed 4× with Phosphate Buffered Saline with Tween20 (PBST) to remove any digested biotinylated-HA followed by addition of streptavidin-HRP for 1 hour at room temperature. The wells were washed 4× with PBST and the plate was developed with TMB. The plate was read at 450 nm using an ELISA plate reader. Hyaluronidase activity (in Units/mL) was determined by interpolating the measured absorbance at 450 nm with a hyaluronidase reference standard curve. Full length mature human PH20 hyaluronidase and untransfected CHO cells were used as positive and negative controls.
PH20sHis (SEQ ID NO:210) was used as a template for mutagenesis of each asparagine residue to alanine using QuikChange® Site-Directed Mutagenesis Kit (Cat No. 200518, Stratagene). […] Six single mutants were generated, one for each of the N-glycosylation sites. Additionally, three double mutants and a triple mutant were generated for asparagines N82, N166 and N254, all of which are occupied by complex type glycans. Finally, a double mutant N368A/N393A was generated, lacking high mannose glycans. The mutants were transfected into CHO—S cells and expression was performed as described in Example 2A. Secretion into the media and hyaluronidase activity were determined as described in Examples 3 and 5, above.

B1: SPAM1-ILFL: C-terminally truncated human PH20, precursor 501 aa (SEQ ID NO:6), mature 466 aa (SEQ ID NO:58) (protein, listed as Homo sapiens)
chain 1: MGVLKFKHIFFRSFVKSSGVSQIVFTFLLIPCCLTLNFRAPPVIPNVPFLWAWNAPSEFCLGKFDEPLDMSLFSFIGSPRINATGQGVTIFYVDRLGYYPYIDSITGVTVNGGIPQKISLQDHLDKAKKDITFYMPVDNLGMAVIDWEEWRPTWARNWKPKDVYKNRSIELVQQQNVQLSLTEATEKAKQEFEKAGKDFLVETIKLGKLLRPNHLWGYYLFPDCYNHHYKKPGYNGSCFNVEIKRNDDLSWLWNESTALYPSIYLNTQQSPVAATLYVRNRVREAIRVSKIPDAKSPLPVFAYTRIVFTDQVLKFLSQDELVYTFGETVALGASGIVIWGTLSIMRSMKSCLLLDNYMETILNPYIINVTLAAKMCSQVLCQEQGVCIRKNWNSSDYLHLNPDNFAIQLEKGGKFTVRGKPTLEDLEQFSEKFYCSCYSTLSCKEKADVKDTDAVDVCIADGVCIDAFLKPPMETEEPQIFYNASPSTLSATMFIVSILFL
chain 2: LNFRAPPVIPNVPFLWAWNAPSEFCLGKFDEPLDMSLFSFIGSPRINATGQGVTIFYVDRLGYYPYIDSITGVTVNGGIPQKISLQDHLDKAKKDITFYMPVDNLGMAVIDWEEWRPTWARNWKPKDVYKNRSIELVQQQNVQLSLTEATEKAKQEFEKAGKDFLVETIKLGKLLRPNHLWGYYLFPDCYNHHYKKPGYNGSCFNVEIKRNDDLSWLWNESTALYPSIYLNTQQSPVAATLYVRNRVREAIRVSKIPDAKSPLPVFAYTRIVFTDQVLKFLSQDELVYTFGETVALGASGIVIWGTLSIMRSMKSCLLLDNYMETILNPYIINVTLAAKMCSQVLCQEQGVCIRKNWNSSDYLHLNPDNFAIQLEKGGKFTVRGKPTLEDLEQFSEKFYCSCYSTLSCKEKADVKDTDAVDVCIADGVCIDAFLKPPMETEEPQIFYNASPSTLSATMFIVSILFL
modifications: HuPH20 precursor 1-501; mature HuPH20 36-501
Expressed in Media Following Addition of PI-PLC (CHO-S cells): YES
pH 5.5 Activity ([1]; Table 6): 0.0405 Units/ml
pH 7.4 Activity ([1]; Table 6): 0.0405 Units/ml
pH 5.5 Activity ([1]; Table 6A): 0.122 Units/ml
pH 7.4 Activity ([1]; Table 6A): 0.446 Units/ml
Hyaluronidase activity (in words) [1]: little detectable activity

B3: N82A: PH20sHis N-glycosylation site mutant N82A, SEQ ID NO:202 (protein)
chain: MGVLKFKHIFFRSFVKSSGVSQIVFTFLLIPCCLTLNFRAPPVIPNVPFLWAWNAPSEFCLGKFDEPLDMSLFSFIGSPRIAATGQGVTIFYVDRLGYYPYIDSITGVTVNGGIPQKISLQDHLDKAKKDITFYMPVDNLGMAVIDWEEWRPTWARNWKPKDVYKNRSIELVQQQNVQLSLTEATEKAKQEFEKAGKDFLVETIKLGKLLRPNHLWGYYLFPDCYNHHYKKPGYNGSCFNVEIKRNDDLSWLWNESTALYPSIYLNTQQSPVAATLYVRNRVREAIRVSKIPDAKSPLPVFAYTRIVFTDQVLKFLSQDELVYTFGETVALGASGIVIWGTLSIMRSMKSCLLLDNYMETILNPYIINVTLAAKMCSQVLCQEQGVCIRKNWNSSDYLHLNPDNFAIQLEKGGKFTVRGKPTLEDLEQFSEKFYCSCYSTLSCKEKADVKDTDAVDVCIADGVCIDAFLKPPMETEEPQIFYNASPSTLSHHHHHH
modifications: His tag; PH20sHis N82A
Activity pH 5.5 [2]: YES
Activity pH 7.4 [2]: YES

B4: N166A: PH20sHis N-glycosylation site mutant N166A, SEQ ID NO:203 (protein)
chain: B3 chain with A82N, N166A
modifications: His tag; PH20sHis N166A
Activity pH 5.5 [2]: YES
Activity pH 7.4 [2]: YES

Now from value to molecule, other results behind:

pH 5.5 Activity ([1]; Table 6): 1.125 Units/ml
pH 7.4 Activity ([1]; Table 6): 1.4715 Units/ml
pH 5.5 Activity ([1]; Table 6A): 1.256 Units/ml
pH 7.4 Activity ([1]; Table 6A): 1.782 Units/ml
B2: SPAM1-SSVA: C-terminally truncated human PH20, precursor 507 aa (SEQ ID NO:3), mature 472 aa (SEQ ID NO:55) (protein, listed as Homo sapiens)
chain 1: MGVLKFKHIFFRSFVKSSGVSQIVFTFLLIPCCLTLNFRAPPVIPNVPFLWAWNAPSEFCLGKFDEPLDMSLFSFIGSPRINATGQGVTIFYVDRLGYYPYIDSITGVTVNGGIPQKISLQDHLDKAKKDITFYMPVDNLGMAVIDWEEWRPTWARNWKPKDVYKNRSIELVQQQNVQLSLTEATEKAKQEFEKAGKDFLVETIKLGKLLRPNHLWGYYLFPDCYNHHYKKPGYNGSCFNVEIKRNDDLSWLWNESTALYPSIYLNTQQSPVAATLYVRNRVREAIRVSKIPDAKSPLPVFAYTRIVFTDQVLKFLSQDELVYTFGETVALGASGIVIWGTLSIMRSMKSCLLLDNYMETILNPYIINVTLAAKMCSQVLCQEQGVCIRKNWNSSDYLHLNPDNFAIQLEKGGKFTVRGKPTLEDLEQFSEKFYCSCYSTLSCKEKADVKDTDAVDVCIADGVCIDAFLKPPMETEEPQIFYNASPSTLSATMFIVSILFLIISSVA
chain 2: LNFRAPPVIPNVPFLWAWNAPSEFCLGKFDEPLDMSLFSFIGSPRINATGQGVTIFYVDRLGYYPYIDSITGVTVNGGIPQKISLQDHLDKAKKDITFYMPVDNLGMAVIDWEEWRPTWARNWKPKDVYKNRSIELVQQQNVQLSLTEATEKAKQEFEKAGKDFLVETIKLGKLLRPNHLWGYYLFPDCYNHHYKKPGYNGSCFNVEIKRNDDLSWLWNESTALYPSIYLNTQQSPVAATLYVRNRVREAIRVSKIPDAKSPLPVFAYTRIVFTDQVLKFLSQDELVYTFGETVALGASGIVIWGTLSIMRSMKSCLLLDNYMETILNPYIINVTLAAKMCSQVLCQEQGVCIRKNWNSSDYLHLNPDNFAIQLEKGGKFTVRGKPTLEDLEQFSEKFYCSCYSTLSCKEKADVKDTDAVDVCIADGVCIDAFLKPPMETEEPQIFYNASPSTLSATMFIVSILFLIISSVA
modifications: HuPH20 precursor 1-507; mature HuPH20 36-507
Expressed in Media Following Addition of PI-PLC (CHO-S cells): YES

pH 5.5 Activity ([1]; Table 6A): 0.324 Units/ml
pH 7.4 Activity ([1]; Table 6A): 0.608 Units/ml
B5: SPAM1-LFLI: C-terminally truncated human PH20, precursor 502 aa (SEQ ID NO:47), mature 467 aa (SEQ ID NO:99) (protein, listed as Homo sapiens)
chain 1: MGVLKFKHIFFRSFVKSSGVSQIVFTFLLIPCCLTLNFRAPPVIPNVPFLWAWNAPSEFCLGKFDEPLDMSLFSFIGSPRINATGQGVTIFYVDRLGYYPYIDSITGVTVNGGIPQKISLQDHLDKAKKDITFYMPVDNLGMAVIDWEEWRPTWARNWKPKDVYKNRSIELVQQQNVQLSLTEATEKAKQEFEKAGKDFLVETIKLGKLLRPNHLWGYYLFPDCYNHHYKKPGYNGSCFNVEIKRNDDLSWLWNESTALYPSIYLNTQQSPVAATLYVRNRVREAIRVSKIPDAKSPLPVFAYTRIVFTDQVLKFLSQDELVYTFGETVALGASGIVIWGTLSIMRSMKSCLLLDNYMETILNPYIINVTLAAKMCSQVLCQEQGVCIRKNWNSSDYLHLNPDNFAIQLEKGGKFTVRGKPTLEDLEQFSEKFYCSCYSTLSCKEKADVKDTDAVDVCIADGVCIDAFLKPPMETEEPQIFYNASPSTLSATMFIVSILFLI
chain 2: LNFRAPPVIPNVPFLWAWNAPSEFCLGKFDEPLDMSLFSFIGSPRINATGQGVTIFYVDRLGYYPYIDSITGVTVNGGIPQKISLQDHLDKAKKDITFYMPVDNLGMAVIDWEEWRPTWARNWKPKDVYKNRSIELVQQQNVQLSLTEATEKAKQEFEKAGKDFLVETIKLGKLLRPNHLWGYYLFPDCYNHHYKKPGYNGSCFNVEIKRNDDLSWLWNESTALYPSIYLNTQQSPVAATLYVRNRVREAIRVSKIPDAKSPLPVFAYTRIVFTDQVLKFLSQDELVYTFGETVALGASGIVIWGTLSIMRSMKSCLLLDNYMETILNPYIINVTLAAKMCSQVLCQEQGVCIRKNWNSSDYLHLNPDNFAIQLEKGGKFTVRGKPTLEDLEQFSEKFYCSCYSTLSCKEKADVKDTDAVDVCIADGVCIDAFLKPPMETEEPQIFYNASPSTLSATMFIVSILFLI
modifications: HuPH20 precursor 1-502; Mature HuPH20 36-502
Expressed in Media Following Addition of PI-PLC (CHO-S cells): YES
Hyaluronidase activity (in words) [1]: little detectable activity
